Reference: patent US20220339289A1 (Bicycle, published 2022)
Starred links: 1 amine or outer side, 2 acyl side, 3 side chain; linkers in the order of their positions; H or OH if unused. Positions of bridges follow the written chain, without caps; N, C: chain ends. Non-standard residues stand in square brackets, D forms with d. Primed or numbered codes have the meaning given here. No end group written: not given here. *: point of attachment. TCAZ″ = 1,1',1''-(1,4,7-triazonane-1,4,7-triyl)tris(2-chloroethan-1-one) scaffold, O=C(C[*:1])N1CCN(C(=O)C[*:2])CCN(C(=O)C[*:3])CC1; TCAZ = 1,1',1''-(1,4,7-triazonane-1,4,7-triyl)tris(2-chloroethan-1-one); TATA = O=C(CC[*:1])N1CN(C(=O)CC[*:2])CN(C(=O)CC[*:3])C1; 1Nal = N[C@@H](Cc1cccc2ccccc12)C(=O)O; Pent4ynoyl = C#CCCC(=O)*

Assays:
[1] = biological target: T1, Recombinant biotinylated human P-Selectin protein (human, UniProt P16109 42-771, limits assumed, biotinylated (site not stated)); experiment: inhibition of 5 nM P-selectin binding to HL-60 cells (PSGL1), mirrorball cytometer, geomean of n=3
T1 sequence (looked up): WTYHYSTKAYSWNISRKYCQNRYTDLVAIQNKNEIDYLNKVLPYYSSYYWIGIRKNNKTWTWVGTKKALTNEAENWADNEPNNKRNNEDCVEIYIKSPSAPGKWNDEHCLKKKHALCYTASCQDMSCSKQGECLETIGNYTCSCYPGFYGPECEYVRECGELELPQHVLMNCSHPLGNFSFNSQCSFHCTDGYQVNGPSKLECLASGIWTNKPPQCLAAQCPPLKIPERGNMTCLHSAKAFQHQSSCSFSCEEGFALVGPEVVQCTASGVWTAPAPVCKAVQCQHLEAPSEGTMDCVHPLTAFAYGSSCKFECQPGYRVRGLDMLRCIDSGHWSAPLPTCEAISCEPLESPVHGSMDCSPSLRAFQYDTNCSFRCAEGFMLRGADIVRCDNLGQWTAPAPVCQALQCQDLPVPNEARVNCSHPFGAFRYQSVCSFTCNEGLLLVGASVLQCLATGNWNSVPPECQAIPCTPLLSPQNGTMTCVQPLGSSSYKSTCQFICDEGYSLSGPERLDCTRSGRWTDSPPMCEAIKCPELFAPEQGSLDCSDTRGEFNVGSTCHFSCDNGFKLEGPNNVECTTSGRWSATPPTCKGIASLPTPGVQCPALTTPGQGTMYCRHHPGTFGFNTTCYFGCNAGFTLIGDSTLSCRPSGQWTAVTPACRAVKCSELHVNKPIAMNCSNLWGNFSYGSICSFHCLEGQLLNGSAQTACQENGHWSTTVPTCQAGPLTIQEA
Description: Bicycle test samples, SelG1 (Crizanlizumab) were serially diluted maintaining 0.5% DMSO in assay buffer (25 mM HEPES, 121 mM NaCl, 5.4 mM KCl, 0.8 mM MgCl₂, 1.8 mM CaCl₂), 6 mM NaHCO₂, 5.5 mM glucose, 1% BSA, pH7.4) and transferred to 384 well clear bottom plates (Corning, 3712) with a final volume of 6 μL. […], of P-Selectin in imaging buffer (25 mM HEPES, 121 mM NaCl, 5.4 mM KCl, 0.8 mM MgCl₂, 1.8 mM CaCl₂), 6 mM NaHCO₂, 5.5 mM glucose, pH7.4) was added to give a 5 nM final concentration and incubated at room temperature for 15 minutes. HL-60 cells (ATCC, CCL-240) mixed with 1 μg/mL far red labelled wheat germ agglutinin (WGA, ThermoFisher W21404) and 1 μg/mL AlexaFluor 488-streptavidin (Invitrogen S11223) were added to the plate and incubated for 2 hours at room temperature in the absence of light. Staining and antibody binding were quantified by simultaneously scanning the microplates with 488 nm and 640 nm lasers on a mirrorball microplate cytometer, AF488 on FL2 triggering on AF647-WGA on FL4. Data was analysed in Dotmatics, using a four parameter logistic fit to generate IC50 values and % response. Percent inhibition was calculated using 100−% response at top concentration.

[2] = biological target: T1, Recombinant biotinylated human …; experiment: SPR (Biacore), biotinylated human P-selectin captured on streptavidin chip, peptide as analyte; peptide BCY5454, a separate peptide number
Description: (§1) Biacore experiments were performed to determine ka (M−1s−1), kd (s−1), KD (nM) values of monomeric peptides binding to human Selectin proteins. Recombinant biotinylated human P-Selectin protein was used. For analysis of binding, either a Biacore 3000 or 5200 instrument was used with a CMS sensor chip (GE Healthcare). For sensor chip surface preparation, streptavidin was immobilized on the chip using standard amine-coupling chemistry at 25° C. with HBS-N (10 mM HEPES, 0.15 M NaCl, pH 7.4) as the running buffer. The carboxymethyl dextran surface was activated with a 12 min injection of a 1:1 ratio of 0.4 M 1-ethyl-3-(3-dim ethyl aminopropyl) carbodiimide hydrochloride (EDC)/0.1 M N-hydroxy succinimide (NHS) at a flow rate of 10 μl/min. For capture of streptavidin, protein was diluted to 0.2 mg/ml in 10 mM sodium acetate (pH 4.5) and captured by injecting 70 μl onto the activated chip surface. Residual activated groups were blocked with a 7 min injection of 1 M ethanolamine (pH 8.5). Biotinylated protein stock was diluted 1:100 in HBS-N and captured on one flow cell at 5 μl/min to a level of 1000-1500 RU. Buffer was changed to PBS/0.05% Tween 20 and a dilution series of the peptides was prepared in this buffer with a final DMSO concentration of 0.5%. […] In all cases a titration was performed with either seven 2-fold dilutions or five 3-fold dilutions. […]

[3] = biological target: T1, Recombinant biotinylated human …; experiment: SPR (Biacore), biotinylated human P-selectin captured on streptavidin chip, peptide as analyte; peptide BCY5463, a separate peptide number
Description: as §1

[4] = biological target: T1, Recombinant biotinylated human …; experiment: SPR (Biacore), biotinylated human P-selectin captured on streptavidin chip, peptide as analyte; peptide BCY12261, a separate peptide number
Description: as §1

[5] = biological target: T1, Recombinant biotinylated human …; experiment: SPR (Biacore), biotinylated human P-selectin captured on streptavidin chip, peptide as analyte; peptide BCY12257, a separate peptide number
Description: as §1

[6] = biological target: T1, Recombinant biotinylated human …; experiment: SPR (Biacore), biotinylated human P-selectin captured on streptavidin chip, peptide as analyte; peptide BCY5458, a separate peptide number
Description: as §1

[7] = biological target: T1, Recombinant biotinylated human …; experiment: SPR (Biacore), biotinylated human P-selectin captured on streptavidin chip, peptide as analyte
Description: Biacore experiments were performed to determine ka (M−1s−1), kd (s−1), KD (nM) values of monomeric peptides binding to human Selectin proteins. Recombinant biotinylated human P-Selectin protein was used. For analysis of binding, either a Biacore 3000 or 5200 instrument was used with a CMS sensor chip (GE Healthcare). For sensor chip surface preparation, streptavidin was immobilized on the chip using standard amine-coupling chemistry at 25° C. with HBS-N (10 mM HEPES, 0.15 M NaCl, pH 7.4) as the running buffer. The carboxymethyl dextran surface was activated with a 12 min injection of a 1:1 ratio of 0.4 M 1-ethyl-3-(3-dim ethyl aminopropyl) carbodiimide hydrochloride (EDC)/0.1 M N-hydroxy succinimide (NHS) at a flow rate of 10 μl/min. For capture of streptavidin, protein was diluted to 0.2 mg/ml in 10 mM sodium acetate (pH 4.5) and captured by injecting 70 μl onto the activated chip surface. Residual activated groups were blocked with a 7 min injection of 1 M ethanolamine (pH 8.5). Biotinylated protein stock was diluted 1:100 in HBS-N and captured on one flow cell at 5 μl/min to a level of 1000-1500 RU. Buffer was changed to PBS/0.05% Tween 20 and a dilution series of the peptides was prepared in this buffer with a final DMSO concentration of 0.5%. […] In all cases a titration was performed with either seven 2-fold dilutions or five 3-fold dilutions. The SPR analysis was run at 25° C. with a flow rate of 50-80 μl/min with 60 seconds association and a suitable disassociation period (100-900 seconds). Data were corrected for DMSO excluded volume effects. All data were double-referenced for blank injections and reference surface using standard processing procedures and data processing and kinetic fitting were performed using Scrubber software, version 2.0c (BioLogic Software). Data were fitted using mass transport model allowing for mass transport effects where appropriate.

[8] = biological target: T1, Recombinant biotinylated human …; experiment: SPR (Biacore), biotinylated human P-selectin captured on streptavidin chip, peptide as analyte; peptide BCY5462, a separate peptide number
Description: as §1

[9] = biological target: T1, Recombinant biotinylated human …; experiment: SPR (Biacore), biotinylated human P-selectin captured on streptavidin chip, peptide as analyte; peptide BCY5459, a separate peptide number
Description: as §1

[10] = biological target: T1, Recombinant biotinylated human …; experiment: SPR (Biacore), biotinylated human P-selectin captured on streptavidin chip, peptide as analyte; peptide BCY10194 (A-(SEQ ID NO: 6)-A)
Description: as §1

[11] = biological target: T1, Recombinant biotinylated human …; experiment: SPR (Biacore), biotinylated human P-selectin captured on streptavidin chip, peptide as analyte; peptide BCY12259, a separate peptide number
Description: as §1

B1: SelG1 (Crizanlizumab) (antibody, V domains shown)
VH: QVQLVQSGAEVKKPGASVKVSCKVSGYTFTSYDINWVRQAPGKGLEWMGWIYPGDGSIKYNEKFKGRVTMTVDKSTDTAYMELSSLRSEDTAVYYCARRGEYGNYEGAMDYWGQGTLVTVSS
VL: DIQMTQSPSSLSASVGDRVTITCKASQSVDYDGHSYMNWYQQKPGKAPKLLIYAASNLESGVPSRFSGSGSGTDFTLTISSLQPEDFATYYCQQSDENPLTFGGGTKVEIK
IC50 [1]: 4.75 nM
Inhibition at top concentration (%) [1]: 96%

B2: BCY5454 (peptide)
peptide: Pent4ynoyl-ACYMEWCDVTDYGCA-NH2
modifications: linker 2-7-14 via TATA; also: tandem dimer of 2 copies via central hinge C (GTA) and spacer S1A n=10 joined to N-terminal Pya
Kd [2]: 400 nM

B3: BCY5463 (peptide)
peptide: Pent4ynoyl-ACYMEWCDVTDYGCA-NH2
modifications: linker 2-7-14 via TATA; also: tetramer of 4 copies via central hinge A (Tet) and spacer S1A n=23 joined to N-terminal Pya
Kd [3]: 53 nM

B4: BCY12261 (peptide)
peptide: ACDADWCDVPSLPCAK(Pent4ynoyl)-NH2
modifications: linker 2-7-14 via TCAZ″; not fully specified; also: tetramer of 4 copies via central hinge A (Tet) and spacer S1A n=23 joined to K(Pya)
Kd [4]: 0.019 nM

B5: BCY12257 (peptide)
peptide: ACDADWCDVPSLPCAK(Pent4ynoyl)-NH2
modifications: linker 2-7-14 via TCAZ″; not fully specified; also: tandem dimer of 2 copies via central hinge C (GTA) and spacer S1A n=23 joined to K(Pya)
Kd [5]: 11.6 nM

B6: BCY5458 (peptide)
peptide: Pent4ynoyl-ACYMEWCDVTDYGCA-NH2
modifications: linker 2-7-14 via TATA; also: trimer of 3 copies via central hinge B (TCA) and spacer S1A n=10 joined to N-terminal Pya
Kd [6]: 400 nM

B7: BCY11279 (peptide)
peptide: Ac-ACYME[1Nal]CDVTDYGCA-NH2
modifications: linker 2-7-14 via TATA
notes: Monomeric bicyclic peptide
Kd [7]: 690 nM
IC50 [1]: > 3540 nM
Inhibition at top concentration (%) [1]: 24%

B8: BCY5462 (peptide)
peptide: Pent4ynoyl-ACYMEWCDVTDYGCA-NH2
modifications: linker 2-7-14 via TATA; also: tetramer of 4 copies via central hinge A (Tet) and spacer S1A n=10 joined to N-terminal Pya
Kd [8]: 88 nM

B9: BCY5459 (peptide)
peptide: Pent4ynoyl-ACYMEWCDVTDYGCA-NH2
modifications: linker 2-7-14 via TATA; also: trimer of 3 copies via central hinge B (TCA) and spacer S1A n=23 joined to N-terminal Pya
Kd [9]: 169 nM

B10: BCY10194 (peptide)
peptide: ACYMEWCDVTDYGCA-NH2
modifications: linker 2-7-14 via TATA
notes: Monomeric bicyclic peptide
Kd [10]: 9500 nM

B11: BCY12027 (peptide)
peptide: ACDAD[1Nal]CDVPSLPCA-NH2
modifications: linker 2-7-14 via TCAZ
notes: Monomeric bicyclic peptide
Kd [7]: 5.36 nM
IC50 [1]: > 36.8 nM
Inhibition at top concentration (%) [1]: 36%

B12: BCY11648 (peptide)
peptide: ACDADWCDVPSLPCA-NH2
modifications: linker 2-7-14 via TCAZ″
notes: Monomeric bicyclic peptide
Kd [7]: 128 nM
IC50 [1]: > 117 nM
Inhibition at top concentration (%) [1]: 37%

B13: BCY12259 (peptide)
peptide: ACDADWCDVPSLPCAK(Pent4ynoyl)-NH2
modifications: linker 2-7-14 via TCAZ″; not fully specified; also: trimer of 3 copies via central hinge B (TCA) and spacer S1A n=23 joined to K(Pya)
Kd [11]: 0.233 nM

B14: BCY9717 (peptide)
peptide: Ac-CYMEWCDVTDYGC-NH2
modifications: linker 1-6-13 via TATA
notes: Monomeric bicyclic peptide; also called BCY09717
Kd [7]: 7600 nM
IC50 [1]: > 10900 nM
Inhibition at top concentration (%) [1]: 20%
